Results as given in PMC3589550 (Nature structural & molecular biology, 2011).
Entries after “also recorded” stand apart in the source; their conditions may differ.

Tests used:
[1] = molecular target: HAUSP TRAF domain (HAUSP^62–205) (Homo sapiens, UniProt Q93009); type: binding; conditions: ITC
[2] = molecular target: T1, HAUSP (Homo sapiens, UniProt Q93009); experiment: Co-IP / GST pull-down of HAUSP; type: binding; conditions: transfected 293T cells
[3] = molecular target: T1, HAUSP; experiment: In vitro deubiquitination; type: biochemical; conditions: immunopurified Flag-HAUSP complexes, K48-linked 3–7 polyubiquitin chains
[4] = test system: p53; experiment: p53 ubiquitination on vIRF4 expression; type: cell-based

Chain of HAUSP TRAF domain (HAUSP^62–205) (Q93009 62-205): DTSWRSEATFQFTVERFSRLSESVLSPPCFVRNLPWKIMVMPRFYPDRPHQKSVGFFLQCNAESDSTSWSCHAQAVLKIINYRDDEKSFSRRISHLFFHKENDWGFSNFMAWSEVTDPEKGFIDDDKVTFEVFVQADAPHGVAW
T1 sequence (Q93009 whole entry): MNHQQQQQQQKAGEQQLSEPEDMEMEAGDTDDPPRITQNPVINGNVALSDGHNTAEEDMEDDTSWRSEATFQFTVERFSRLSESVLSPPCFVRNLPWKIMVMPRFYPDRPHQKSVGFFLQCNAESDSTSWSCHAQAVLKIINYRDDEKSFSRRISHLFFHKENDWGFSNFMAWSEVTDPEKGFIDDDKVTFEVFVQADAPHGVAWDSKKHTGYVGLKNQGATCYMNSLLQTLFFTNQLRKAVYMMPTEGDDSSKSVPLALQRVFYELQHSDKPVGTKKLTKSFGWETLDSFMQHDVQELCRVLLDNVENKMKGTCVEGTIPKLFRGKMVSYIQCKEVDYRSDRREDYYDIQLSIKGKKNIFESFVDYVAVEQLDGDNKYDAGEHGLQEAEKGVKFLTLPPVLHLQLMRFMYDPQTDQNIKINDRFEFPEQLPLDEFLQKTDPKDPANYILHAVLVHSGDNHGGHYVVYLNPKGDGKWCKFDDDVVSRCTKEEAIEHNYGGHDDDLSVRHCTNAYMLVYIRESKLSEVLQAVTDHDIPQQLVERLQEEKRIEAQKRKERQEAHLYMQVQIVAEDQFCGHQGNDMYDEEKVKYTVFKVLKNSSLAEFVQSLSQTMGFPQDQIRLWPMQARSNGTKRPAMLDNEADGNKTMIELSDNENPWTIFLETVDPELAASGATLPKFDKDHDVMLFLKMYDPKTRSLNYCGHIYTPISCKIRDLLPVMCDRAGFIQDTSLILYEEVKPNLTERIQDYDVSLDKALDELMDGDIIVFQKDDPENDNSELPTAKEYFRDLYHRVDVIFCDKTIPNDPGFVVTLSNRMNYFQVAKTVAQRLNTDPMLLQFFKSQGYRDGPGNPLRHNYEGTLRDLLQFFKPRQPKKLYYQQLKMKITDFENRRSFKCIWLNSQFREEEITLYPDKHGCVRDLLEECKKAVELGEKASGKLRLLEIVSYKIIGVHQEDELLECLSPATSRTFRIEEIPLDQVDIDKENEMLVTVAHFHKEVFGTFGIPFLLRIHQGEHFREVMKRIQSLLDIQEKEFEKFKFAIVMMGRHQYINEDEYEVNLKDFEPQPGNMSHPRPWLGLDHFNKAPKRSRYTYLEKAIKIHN

B1: vIRF4^153–256: central region fragment of vIRF4, residues 153–256 (protein)
chain: SDTREQSYEEAGAAAPAPPKAPSGLRGRPRKSNRYYNVGDITTEQKAACSVWIPVNEGASTSGMGSSGTRQVTQASSFTWRVPGDPPAPSTLTGPSDPHSSGAG
Which results are given for B1?
fold higher TRAF affinity (C-terminally extended) ([1]; compared with vIRF4^153–216 / vIRF4^202–216): 7 fold; interaction with HAUSP [2]: specifically interacts with; also recorded: sufficient to bind to HAUSP

B2: vIRF4^153–256/Δ202–216: vIRF4^153–256 with residues 202–216 deleted (protein)
chain: SDTREQSYEEAGAAAPAPPKAPSGLRGRPRKSNRYYNVGDITTEQKAACGSSGTRQVTQASSFTWRVPGDPPAPSTLTGPSDPHSSGAG
B2 was tested. Which “TRAF binding affinity, in words” value [1] did it give?
Its value is “significant reduction of TRAF binding affinity”.

B3: vIRF4: KSHV viral interferon regulatory factor 4 (protein)
chain: MPKAGGSEWATLWIIDALENNKFPYFSWFDRNNLLFAAPAPLPAGSDIPPGWYSVYHAFDEECDRVYGPSPVVGQTVYGRFGRLLRGTRRAVVRNDLRYSDTFGGSYVVWQLVRTPFKNCTYCYGAAYGPEKLQRFIQCLLSPPMQTTATRRSDTREQSYEEAGAAAPAPPKAPSGLRGRPRKSNRYYNVGDITTEQKAACSVWIPVNEGASTSGMGSSGTRQVTQASSFTWRVPGDPPAPSTLTGPSDPHSSGAGLPGTAPPKPQHETRLAGTVSGVSGVAQTPGDTGQLAPPMRDGSRLPSTSPWIPACFPWGDLPVTGWWPQGASGLPEKVHPPTTGQFDPLSPRWTYTGIPSSQLNPAAPSWIPPHAQAGTFVGEFSQGAPLAPQGLLPQSGQCASAWLPRRETGAEGACGASTEGRAPQGAASERVYPFEPQPPSAPAPGYAKPSCYNWSPLAEPPATRPIRAPVWHPPVGHAVVPEVRTPLWIPWSSGGAPNQGLSHTQGGASATPSAGAPPTPEVAERQEPSSSGIPYVCQGDNMATGYRRVTTSSGALEVEIIDLTGDSDTPSTTVASTPLPVSGPRVFQPTVLYSAPEPAVNPEVSHLPTELERRECVCPGSGERPRVPLVSTYAGDRYAVGGYGPEQSLVPPPLGLPLTLSNLQGEDICTWEEGLGNILSELQEEPSSSTRQATDRRRPRSRSPHGRRTPVSHSGPEKPPSKMFFDPPDSQRVSFVVEIFVYGNLRGTLRREGDAGEAMLCSWPVGDTLGHLCQSFVPELLRIPRLTVPSPEQMEILNRVFEGLGHGFPIFCSMSGIYSRNATQVEGWWFGNPNSRYERILRSFSPRVPQQLFNTARYLATTAAIPQTPLSVNPVTCGTVFFGASPASTENFQNVPLTVKIFIGSIWDSLH
modifications: left off: V5, end not stated, kept
B3 was tested. Which “HAUSP DUB activity” value [3] did it give?
The value was “effectively suppressed HAUSP DUB activity in a binding-dependent manner”.

What about the p53 ubiquitination [4] of the same molecule?
The p53 ubiquitination was “markedly induced p53 ubiquitination”.

B4: vIRF4^153–256/Δ202–216/Δ237–256: vIRF4^153–256 with residues 202–216 and 237–256 deleted (protein)
chain: SDTREQSYEEAGAAAPAPPKAPSGLRGRPRKSNRYYNVGDITTEQKAACGSSGTRQVTQASSFTWRVPG
How did the “TRAF binding affinity, in words” value [1] turn out when B4 was run?
Its value is “had no further effect”.
